Data on three molecules can be found in patent publication US20130324704A1 (published 2013).

Experiment [1] concerns the target EGFL7 coated on plates in the Cell Adhesion Assay (mouse EGFL7 (mEGFL7-CB-His) or human EGFL7 (EGFL7-CB-His)); …. Put plainly: cell-based or functional assay.
The target in experiment [2] is T1, Mouse EGFL7 (mEGFL7-CB-His) (mouse, UniProt Q9QXT5 22-275).
T1 construct: Limits of the construct and the CB(-His) tag are not described; also called murine EGFL7
T1 sequence: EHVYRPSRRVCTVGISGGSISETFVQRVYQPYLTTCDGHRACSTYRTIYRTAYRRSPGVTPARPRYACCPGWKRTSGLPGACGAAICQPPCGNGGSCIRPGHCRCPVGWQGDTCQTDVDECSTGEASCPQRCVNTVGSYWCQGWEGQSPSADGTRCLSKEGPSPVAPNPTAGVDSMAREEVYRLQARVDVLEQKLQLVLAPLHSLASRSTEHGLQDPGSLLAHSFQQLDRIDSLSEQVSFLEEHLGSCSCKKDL
Put plainly: SPR (Biacore) at 37 C, IgG over immobilized mEGFL7-CB.

Residue numbers refer to the chain shown, from its start.

B1: 4F11.v6, IgG (antibody, V domains shown)
VH: EVQLVESGGGLVQPGGSLRLSCAASGHTFTTYGMSWVRQAPGKGLEWVGWINTHSGVPTYADDFKGRFTISRDNSKNTVYLQMNSLRAEDTAVYYCARLGSSAVDYWGQGTLVTVSS
VL: DIQMTQSPSSLSASVGDRVTITCKASQSVDYDGDSYMSWYQQKPGKAPKLLIYGASYLESGVPSRFSGSGSGTDFTLTISSLQPEDFATYYCQQNNEDPYTFGQGTKVEIK
Regarding B1, the “Cell Adhesion Assay Variant/ch4F11 (fold)” value in experiment [1] came to 4.01 fold.

B2: 4F11.v10, IgG (antibody, V domains shown)
VH: B1 VH with S102Y
VL: B1 VL
With B2, the “Cell Adhesion Assay Variant/ch4F11 (fold)” value in experiment [1] was 4.38 fold.

B3: hu18F7.v6J, IgG (antibody, V domains shown)
VH: EVQLVESGGGLVQPGGSLRLSCAASGYTFIDYYMNWVRQAPGKGLEWVGDINLDNSGTHYNQKFKGRFTISRDKSKNTAYLQMNSLRAEDTAVYYCAREGVYHDYDDYAMDYWGQGTLVTVSS
VL: DIQMTQSPSSLSASVGDRVTITCRTSQSLVHINSITYLHWYQQKPGKAPKLLIYRVSNRFSGVPSRFSGSGSGTDFTLTISSLQPEDFATYYCGQSTHVPLTFGQGTKVEIK
notes: Variant of 18F7.v6; Expressed as IgG
B3 yielded a Kd in experiment [2] of 6.8 nM.
